The values below come from patent US20240218057A1 (ROCKEFELLER UNIVERSITY, published 2024).

The target in assay [1] is T1, SARS-COV-2 RBD (SARS-COV-2, UniProt P0DTC2 319-539).
T1 construct: also called WT RBD
Description: ELISA, RBD coated on plate.

Assay [2] addresses SARS-COV-2 RBD (SARS-COV-2, UniProt P0DTC2 319-539). Description: ELISA, RBD coated.

B1: C943 (antibody, V domains shown)
VH: QVQLVESGGGVVQPGRSLRLSCAASGFPFSSFGMHWVRQAPGRGLEWVALILYDGDNKYYADSVKGRFTISRDNSKNTLYLQMNSLRAEDTAVYYCAKDIGGGSSPPFFDYWGQGTLVTVSS
VL: SYELTQAPSVSLAPGKTARITCGENNIGSKSVHWYQQKPGQAPVLVIYYDSDRPSGIPERFSGSNSGNTATLTISRVEAGDEADYYCQVWDSSSDHVMFGGGTKLTVL
B1 yielded an EC50 in assay [1] of 2.59 ng/mL.

B2: C945 (antibody, V domains shown)
VH: QVQLVQSGAEVKKPGASVRISCKASGYTFTNYYMHWVRQAPGQGLEWMGIINPSGGSTTYAPKFQARVTMTRDTSTSTVYMELSSLRSDDTAVYYCARDYVLVPARSGMDVWGQGTTVTVS
VL: EIVLTQSPATLSLSPGERATLSCRASQSVSSYLAWYQQKPGQAPRLLIYDASNRATGIPARFSGSGSGTDFTLTISSLEPEDFAIYYCQQRSNWPYTFGQGTKLEIK
B2: the EC50 in assay [1] is 3.13 ng/mL.

B3: C946 (antibody, V domains shown)
VH: QVQLVQSGAEVKKPGASVKVSCKASGYTFTNYYIHWVRQAPGQGLEWMGIINPDGDSTSYVQKFQGRVTMTRDTSTSTVYMELSSLRSEDTAVYYCARDLVFVPATSAMDVWGKGTTVTVSS
VL: EIVLTQSPATLSLSPGERATLSCRASQSVSSYLAWYQQKPGQAPRLLIYDASNRATGIPARFSGSGSGTDFTLTISSLEPEDFAVYYCQQRSNWLFTFGPGTKVDIK
In assay [1], B3 had a half-maximal effective concentration (EC50) of 3.82 ng/mL.

B4: C935 (antibody, V domains shown)
VH: QVQLVESGGGVVQPGRSLRLSCAATGFTFSSYGMHWVRQAPGKGLEWVALIWYDGSNQYYVDSVKGRFTISRDNSKKTLYLQMNSLRVEDTAVYYCARDFSNSDMVTLSDAFDIWGQGTMVTVSS
VL: DIQLTQSPSFLSASVGDRVTIACRASQGISSYSSYLAWYQQKPGKAPKLLIYAASTLQSGVPSRFSGSGSGTEFTLTISSLQPEDFATYYCQQLNSYPLFTFGPGTKVDIK
B4: in assay [1], the concentration giving a half-maximal response (EC50) was found to be 2.86 ng/mL.

B5: C944 (antibody, V domains shown)
VH: QVQLVESGGGVVQPGRSLRLSCAASGFTFSSYGMHWVRQAPGKGLEWVAVISYDGSYKYYADSVKGRFTISRDNSKNTLYLQMNSLRAEDTAVYYCAKGSGSQLYYYYGMDVWGQGTTVTVSS
VL: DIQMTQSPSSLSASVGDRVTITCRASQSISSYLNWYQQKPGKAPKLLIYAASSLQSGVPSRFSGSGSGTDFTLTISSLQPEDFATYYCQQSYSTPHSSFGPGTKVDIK
Take B5: in assay [1], the concentration giving a half-maximal response (EC50) was determined as 1.71 ng/mL.

B6: C062 (antibody, V domains shown)
VH: EVQLVESGGGLVKPGGSLRLTCAASGFTFSTYSMNWVRQAPGKGLEWVSSISSSSSYIYYADSVKGRFTISRDNAKNSLYLQMNSLRAEDTAVYYCARERGYYGGKTPPFLGGQGTLVTVSS
VL: NFMLTQPHSVSESPGKTVTISCTGSSGSIASNYVQWYQQRPGSAPTTVIYEDNQRPSGVPDRFSGSIDSSSNSASLTISGLKTEDEADYYCQSYDSSNYWVFGGGTKLTVL
In turn, B6 came in with an EC50 in assay [2] of 4.69 ng/mL.

B7: C947 (antibody, V domains shown)
VH: QVQLQESGPGLVRPSGTLSLTCAVTGGSISSSDCWSWVRQPPGKGLEWIGEICHGRTSNYNPSLKSPVSISVDKSKNQFSLILSSVTAADKAVYYCARSSRFLPPLPDAFDLWGQGTMVTVSS
VL: QSVLTQPPSVSGAPGQRVTISCTGSSSNIGAGYDVHWYKQLPGTAPKLLIYGNTNRPSGVPGRFSGSKSGTSASLAITGLQAEDEADYFCQSYDTRLSVVFGGGTKLT
B7: the 50% effective concentration (EC50) in assay [1] was found to be 2.08 ng/mL.

B8: C942 (antibody, V domains shown)
VH: QVQLVESGGGVVQPGRSLRLSCAASGFTFSSYVMHWVRQAPGKGLEWVAIISSDGNTKYYADSVKGRFTISRDNSKNTLYLQMNSVRTDDTAVYYCARDGTTMTPTDLLTDWGQGTLVTVSS
VL: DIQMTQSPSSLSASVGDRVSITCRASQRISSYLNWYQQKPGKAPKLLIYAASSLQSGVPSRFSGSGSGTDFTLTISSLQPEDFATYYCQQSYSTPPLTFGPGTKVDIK
Take B8: a half-maximal response in assay [1] (EC50) required 2.13 ng/mL.

B9: C045 (antibody, V domains shown)
VH: EVQLVESGGGLVQPGGSLRLSCAASGFTFSTYSMNWVRQAPGKGLEWVSYISSSSSTIHYADSVKGRFTISRDNAKNSLYLQMNSLRDEDTAVYYCAREAHDGALTDYGDYLNWFDPWGQGTLVTVSS
VL: SYELTQPPSVSVAPGKTARITCGGTNIGSKNVHWYQQKPGQAPVLVIYYDNDRPSGIPERFSGSNSGNTATLTISRVEAGDEADYYCQVWDTTSDHFYWVFGGGTKLTVL
B9 showed an EC50 in assay [2] of 7 ng/mL.

B10: C050 (antibody, V domains shown)
VH: EVQLVESGGGLFQPGGSLRLSCAASGFSVRNNYVSWVRQAPGKGLEWVSVIYSGGTTYYADSVKGRFTISRDISENTLYLQMNSLRAEDTAVYYCAREGDVEGLHDFWSGYSRDRYYFDYWGQGTLVTVSS
VL: QSALTQPASVSGSPGQSIIISCTGTSGDIGGYNYVSWYQQHPGKAPKLMIYDVSFRPSGVSNRFSGSKSDNTASLTISGLQAEDEADYYCSSFTGNNTRVFGTGTKVTVL
B10 registered an EC50 in assay [2] of 193 ng/mL.

B11: C054 (antibody, V domains shown)
VH: EVQLVESGGGLIQPGGSLRLSCAASGFTVSNNYMSWVRQAPGKGLEWVSVIYSGGSTYDADSVKGRFTISRDNSKNTLYLQMNSLSAEDTAVYYCAREGDVEGYYDFWSGYSRDRYYFDYWGQGTLVTVSS
VL: QSALTQPASVSGSPGQSITISCTGTSSDVGGYNYVSWYQQHPGKAPKLMIYDVSNRPSGVSNRFSGSKSGNTASLTISGLQAEDEADYYCSSYTSSSARVFGTGTKVTVL
The molecule B11 gave an EC50 in assay [2] of 1.58 ng/mL.

B12: C053 (antibody, V domains shown)
VH: EVQLVESGGGLIQPGGSLRLSCAASGFIVSNNYMSWVRQAPGKGLDWVSVIYSGGTTYYADSVKGRFTISRDNSKNTLYLQMNSLRAEDTAVYYCAREGDVEGYHDSWSGYSRDRYYFDYWGQGTLVTVSS
VL: QSALTQPASVSGSPGQSITISCTGSSSDVGGYNFVSWYQQHPGRAPKLMIYDVSNRPSGVSNRFSGSKSGNTASLTISGLQVEDEADYYCSSYTNNNTRVFGTGTKVTVL
The molecule B12 had an EC50 in assay [2] of 1.53 ng/mL.

B13: C052 (antibody, V domains shown)
VH: EVQLVESGGGLIRPGGSLRLSCAASGFSVSNNYMSWVRQAPGKGLEWVSVIYSGGTTYYADSVKGRFNISRDNSKNTVYLQMNSLRAEDTAVYYCAREGDVEGYYDFWSGYSRDRYYFDYWGQGALVTVSS
VL: QSALTQPASVSGSPGQSITISCTGTSSDVGGYNYVSWYQQHPGKAPKLMIYDVSNRPSGVSNRFSGSKSGNTASLTISGLQAEDEADYYCNSYTSNNTRVFGTGTKVTVL
For B13, the EC50 in assay [2] turned out to be 1.23 ng/mL.

B14: C058 (antibody, V domains shown)
VH: QVQLVQSGAEVKKPGASVKVSCKASGYIFTDYSMHWVRQAPGQGLEWIGWVNPNSGGTNYAQKFQGWVTMARDTSITTVYMELSRLKSDDTAVYFCARGPLFHRLVYDFWSGYHDGFDMWGQGTMVTVSS
VL: QSALTQPASVSGSPGQSITISCTGTSSDVGGYKFVSWYQQHPGKAPKLMIYEVSNRPSGVSNRFSGSKSGNTASLTISGLQAEDEADYYCNSYTSSSTWVFGGGTKLTVL
In the case of B14, the EC50 in assay [2] is 2.28 ng/mL.

B15: C057 (antibody, V domains shown)
VH: QVQLVQSGAEVKRPGASVKLSCKASGYIFTDYSIHWVRQAPGQGLEWMGWVNPNSGGGNSAQKFMDWVTMARDTSITTVYMELSRLRSDDTAVYYCARGPLFHKLVYDSWSGYHDGFDIWGQGTMVTVSS
VL: QSALTQPASVSGSPGQSITISCTGTSSDVGAYKFVSWYQQHPGKAPQLIIYEVSNRPSGVSNRFSGSKSGNTASLTISGLQAEDEADYYCSSYTNASTWVFGGGTELTVL
In assay [2], B15 yielded an EC50 of 2.31 ng/mL.

B16: C059 (antibody)
chain 1: QVQLVQSGAEVKKPGASIKVSCKASGYTFTDYSMHWVRQAPGQGLEWMGWINPNSGGTKYAQKFQGWVTMTRDMSITTVYMELTRLRSDATAVFYCARGPLFHKLVYDSWTGYHDGFDIWGQGTMVTVSS
chain 2: QSALTQPASVSGSPGQSITISCTGTSSDVGGYNYVSWYQHYPGKAPKLMIYEVTHRPSGVSNRFSGSKSGNTASLTISGLQAEDEADYYCSSSTNSSTWVFGGGTKMTVL
In assay [2], B16 came in with an EC50 of 1.88 ng/mL.

B17: C948 (antibody, V domains shown)
VH: EVQLVESGGGLVQPGGSLRLSCAASGFTFSRYDMHWVRQATGKGLEWVSIIGTAGDTYYPGSVKGRFTISRDNAKNSLFLQMNSLRAGDTAVYYCARANYDSSGYHNWFDPWGQGTLVTVSS
VL: DIQMTQSPSSLSASIGDRVTITCRASQNINSYLNWYQQKPGKAPKLLIYAASSLQSGVPSRFSGSGSGTDFTLTINSLQPEDFATYYCQQSYSMPSWTFGQGTKVEI
B17: the EC50 in assay [1] is 3.26 ng/mL.

B18: C949 (antibody, V domains shown)
VH: QVQLQESGPGLVKPLQTLSLTCTVSGGSISNGDYYWSWIRQSPGKGLEWIGNIFYSGATYFNPSLKSRVTLSVDTSKNQFSLKLSSVTAADTAVYYCARVVRVLPAASVDCWGQGTLVTVSS
VL: QSALTQPRSVSGSPGQSVPISCTGTSSDVGGYDYVSWYQQHPGKAPKLIIYDVSERPSGVPDRFSGSKSGNTASLTISGLQAEDEATYYCCSYAGTSVMFGGGTKLTVL
B18: in assay [1], the EC50 came to 2.33 ng/mL.

B19: C940 (antibody, V domains shown)
VH: QVQLQESGSGLVKPSQTLSLTCAVSGGSASSGGYSWSWIRQPPGKGLEWIGYIYHSGSTYYNPSLKSRVTISLDRTKKQFSLKLSSVTAADTAVYYCARFCLSGSHYLFAFDIWGPGTMVTVSS
VL: QSALTQPASVSGSPGQSITISCTATSSDVGGYNFVSWYQQYPGKVPKLLIYDVGNRPSGVSNRFSGSKSGNTASLTISGLQAEDEADYYCSSYTNSSTFFGGGTKLTVL
B19 displayed an EC50 in assay [1] of 1.8 ng/mL.

B20: C941 (antibody, V domains shown)
VH: QVQLVQSGAEVKKPGSSVKVSCKASGGTSRSYPISWVRQAPGQGLEWMGRIIPIVGTANYAQRFQGRVTITADESTGTAYMELSSLRSEDTAVYYCARNRGYSDYGSVYYFDYWGQGTLVTVSS
VL: QSVLTQPPSVSGAPGQRVTISCTGSSSNIGAGYDVHWYQQLPGAAPKLLIYRNINRPSGVPDRFSGSKSGTSASLAITGLQADDEADYYCQSYDSSLSGSVFGGGTKLTV
As to B20, the 50% effective concentration (EC50) in assay [1] amounted to 1.92 ng/mL.

B21: C051 (antibody, V domains shown)
VH: EVQLVESGGGLIQAGGSLRLSCAASGFGVRNNYMSWVRQAPGKGLEWVSVIYSGGTTYYADSVKGRFTISRDNSKNTVFLQMNSLRAEDTAVYYCAREGDVEGFSDLWSGYSRDRYYFDYWGQGTLVTVSS
VL: QSALTQPASVSGSPGQSITFSCTGTSSDVGGYNYVSWYQQYPGKAPKLLIYDVTNRPSGVSDRFSGSKSGNTASLTISGLQAEDEADYYCSSFTSSNTRVFGTGTKVTVL
Take B21: the EC50 in assay [2] is 1.65 ng/mL.
